B1: LINE1-full (parent)
chain: UACGUAGGUGGUUUUCCCCUGAUAGUGCUAAGGGGGCCUGGAAGUUUGGACUGGGCAGAGCUCAACACAGCGUGGCAAAGUGGCUGUGGCUAGACUGCCUCUCUGGAUUCCUCGUCACUCAGCAGGGCAUCUCUGAGAGAAAUGCC

This note sets out measurements from the RNAGym collection of RNA variant scans (doi:10.7554/elife.90254).

This data set covers variants of B1. The data set can be described thus: self-cleavage, relative activity (ratio to wild type); higher = more cleavage; in vitro, sequencing; the parent is a self-cleaving ribozyme.
As for UACGUAGGUGGUUUUCCCCUGAUAGUGCUAAGGGGGCCUGGAAGUCUGGACUGGGCAGAGCUCAACCCAGCGUGGCAAAGUGGCUGUGGCUAGACUGCCUCUCUGGAUUCCUCGUCACUCAGCAGGGCAUCUCUGAGAGAAAUGCC, the self-cleavage came to 0.05.

Consider UACGUAGGUGGUUUUCCCCUGAUAGUGCUAAGGGGGCCUGGAAGUAUGGACUGGGCAGAGCUCAACACAGCGUGGCAAAGUGGCUGUGGCUAGACUGCCUCUCUGGAUUCCUCCUCACUCAGCAGGGCAUCUCUGAGAGAAAUGCC, for which the self-cleavage is 1.56.

Regarding UACGUAGGUGGUUUUCCCCUGAUAGUGCUAAGGGGGCCUGGAAGUAUGGACUGGGCAGAGCUCAACACAGCGUGGCAAAGUGGCCGUGGCUAGACUGCCUCUCUGGAUUCCUCGUCACUCAGCAGGGCAUCUCUGAGAGAAAUGCC, the self-cleavage is 0.08.

On to UACGUAGGUGGUUUUCCCCUGAUAGUGCUAAGGGGGCCUGGAAGUAUGGACUGGGCAGAGCUCAACACAGCGUGGCAAAGUGGCAGUGGCUAGACUGCCUCUCUGGAUUCCUCGUCACUCAGCAGGGCAUCUCUGAGAGAAAUGCC, for which the self-cleavage turned out to be 0.06.

Consider UACGUAGGUGGUUUUCCCCUGAUAGUGCUAAGGGGGCCUGGAAGUAUGGACUGGGCAGAGCUCAACACAGCGUGGCAAAGUGGCUGUGGCUAGACUGCCUCUCUGGAUUCCUCGUCACUCAGCAGGGCAUCUCUGAGAGAAAAGCC, for which the self-cleavage amounted to 1.38.

As to UACGUAGGUGGUUUUCCCCUGAUAGUGCUAAGGGGGCCUGGAAGUCUGGACUGGGCAGAGCUCAACACAGCGUGGCAAAGUGGCUGUGGCUGGACUGCCUCUCUGGAUUCCUCGUCACUCAGCAGGGCAUCUCUGAGAGAAAUGCC, the self-cleavage is 0.29.

Take UACGUAGGUGGUUUUCCCCUGAUAGUGCUAAGGGGGCCUGGAAGUAUGGACUGGGCAGAGCUCAACACAGCGUGGCAAAGUGGCUGUGGCUAGACUGCCCCUCUGGAUUCCUCGUCACUCAGCAGGGCAUCUCUGAGAGAAAUGCC: the self-cleavage was 1.75.

For the variant UACGUAGGUGGUUUUCCCCUGAUAGUGCUAAGGGGGCCUGGAAGUAUGGACUGGGCAGAGCUCAACACAGCGUGGCAAAGUGGCUGUGGCUAGACUGCCUCUCUGGAUUCCUCGACACUCAGCAGGGCAUCUCUGAGAGAAAUGCC, the self-cleavage came out at 1.26.

UACGUAGGUGGUUUUCCCCUGAUAGUGCUAAGGGGGCCUGGAAGUAUGGACUGGGCAGAGCUCAACACAGCGUGGCAAAGUGGCUGUGGCUAGACUGCCUCUCUGGAUUCCUCGCCACUCAGCAGGGCAUCUCUGAGAGAAAUGCC: the self-cleavage amounted to 1.72.

Regarding UACGUAGGUGGUUUUCCCCUGAUAGUGCUAAGGGGGCCUGGAAGUAUGGACUGGGCAGAGCACAACACAGCGUGGCAAAGUGGCUGUGGCUAGACUGCCUCUCUGGAUUCCUCGUCACUCAGCAGGGCAUCUCUGAGAGAAAUGCC, the self-cleavage came out at 0.04.

With UACGUAGGUGGUUUUCCCCUGAUAGUGCUAAGGGGGCCUGGAAGUCUGGACUGGGCAGAGCUCAACACAGCGUGGCUAAGUGGCUGUGGCUAGACUGCCUCUCUGGAUUCCUCGUCACUCAGCAGGGCAUCUCUGAGAGAAAUGCC, the self-cleavage turned out to be 1.51.

Regarding UACGUAGGUGGUUUUCCCCUGAUAGUGCUAAGGGGGCCUGGAAGUCUGGACUGGGCAGAGCUCAACACAGCGUGGCGAAGUGGCUGUGGCUAGACUGCCUCUCUGGAUUCCUCGUCACUCAGCAGGGCAUCUCUGAGAGAAAUGCC, the self-cleavage stood at 2.46.

As for UACGUAGGUGGUUUUCCCCUGAUAGUGCUAAGGGGGCCUGGAAGUCUGGACUGGGCAGAGCUCUACACAGCGUGGCAAAGUGGCUGUGGCUAGACUGCCUCUCUGGAUUCCUCGUCACUCAGCAGGGCAUCUCUGAGAGAAAUGCC, the self-cleavage is 0.55.

In the case of UACGUAGGUGGUUUUCCCCUGAUAGUGCUAAGGGGGCCUGGAAGUCUGGACUGGGCUGAGCUCAACACAGCGUGGCAAAGUGGCUGUGGCUAGACUGCCUCUCUGGAUUCCUCGUCACUCAGCAGGGCAUCUCUGAGAGAAAUGCC, the self-cleavage amounted to 0.17.

As for UACGUAGGUGGUUUUCCCCUGAUAGUGCUAAGGGGGCCUGGAAGUAUGGACUGGGCAGAGCUCAACACAGCGUGGCAAAGCGGCUGUGGCUAGACUGCCUCUCUGGAUUCCUCGUCACUCAGCAGGGCAUCUCUGAGAGAAAUGCC, the self-cleavage is 1.15.

As to UACGUAGGUGGUUUUCCCCUGAUAGUGCUAAGGGGGCCUGGAAGUCUGGACUGGGCAGAGCUCAACACAGCGUGGCAAAGUGGCUGUGGCUAGACUGCCUCUCUGGAUUCCUCGUCACUCAGCAGGGCAUCUCUGAGAGAAAUGCC, the self-cleavage came to 1.41.

In the case of UACGUAGGUGGUUUUCCCCUGAUAGUGCUAAGGGGGCCUGGAAGUAUGGACUGGGCAGAGCUCAACACAGCGUGGCAAAGUGGCUGUGGCUAGACUGCCUCUCUGGAUUCCUCGUCACUCAGCAGGGCAUCUCAGAGAGAAAUGCC, the self-cleavage came out at 0.77.

As to UACGUAGGUGGUUUUCCCCUGAUAGUGCUAAGGGGGCCUGGAAGUAUGGACUGGGCAGAGCUCAACACAGCGUGGCAAAGUGGCUGUGGCUAGACUGCCUCUCUGGAUUCCUCGUCACUCAGCAGGGCAUCUCGGAGAGAAAUGCC, the self-cleavage was determined as 0.84.

With UACGUAGGUGGUUUUCCCCUGAUAGUGCUAAGGGGGCCUGGAAGUCUGGACUGGGCAGAGCUCAUCACAGCGUGGCAAAGUGGCUGUGGCUAGACUGCCUCUCUGGAUUCCUCGUCACUCAGCAGGGCAUCUCUGAGAGAAAUGCC, the self-cleavage worked out at 0.24.

As to UACGUAGGUGGUUUUCCCCUGAUAGUGCUAAGGGGGCCUGGAAGUCUGGACUGGGCAGAGCUCAGCACAGCGUGGCAAAGUGGCUGUGGCUAGACUGCCUCUCUGGAUUCCUCGUCACUCAGCAGGGCAUCUCUGAGAGAAAUGCC, the self-cleavage came to 0.06.

For the variant UACGUAGGUGGUUUUCCCCUGAUAGUGCUAAGGGGGCCUGGAAGUAUGGACUGGGCAGAGCUCAACACAGCGUGGCAAAGUGGCUGUGGCUAGACUGCCUCUCUGGAUUCCUCGUCACACAGCAGGGCAUCUCUGAGAGAAAUGCC, the self-cleavage worked out at 1.42.

For UACGUAGGUGGUUUUCCCCUGAUAGUGCUAAGGGGGCCUGGAAGUAUGGACAGGGCAGAGCUCAACACAGCGUGGCAAAGUGGCUGUGGCUAGACUGCCUCUCUGGAUUCCUCGUCACUCAGCAGGGCAUCUCUGAGAGAAAUGCC, the self-cleavage turned out to be 1.87.

For the variant UACGUAGGUGGUUUUCCCCUGAUAGUGCUAAGGGGGCCUGGAAGUCUGGACUGGGCAGAGCUCAACACAGCGUGGCAAGGUGGCUGUGGCUAGACUGCCUCUCUGGAUUCCUCGUCACUCAGCAGGGCAUCUCUGAGAGAAAUGCC, the self-cleavage stood at 1.29.

Turning to UACGUAGGUGGUUUUCCCCUGAUAGUGCUAAGGGGGCCUGGAAGUCUGGACUGGGCAGAGCUCAACACAGCGUGGCAAUGUGGCUGUGGCUAGACUGCCUCUCUGGAUUCCUCGUCACUCAGCAGGGCAUCUCUGAGAGAAAUGCC, the self-cleavage was determined as 1.83.

In the case of UACGUAGGUGGUUUUCCCCUGAUAGUGCUAAGGGGGCCUGGAAGUCUGGACUGGGCAGAGCUCAACACAGCGUGGCAAAGUGGCUGUGGCUAGACUGCCUCUCUGGAUUCCUCGUCGCUCAGCAGGGCAUCUCUGAGAGAAAUGCC, the self-cleavage is 1.78.

With UACGUAGGUGGUUUUCCCCUGAUAGUGCUAAGGGGGCCUGGAAGUAUGGACUGGGCAGAGCUCAACACAGCGUGGCAAAGUGGCUGUGGCUAGACUGCCUCUCUGGAUUCCUCGUCACUCAGCAGGGCACCUCUGAGAGAAAUGCC, the self-cleavage amounted to 1.88.

In the case of UACGUAGGUGGUUUUCCCCUGAUAGUGCUAAGGGGGCCUGGAAGUAUGGACUGGGCAGAGCUCAACACAGCGUGGCAAAGUGGCUGUGGCUAGACUGCCUCCCUGGAUUCCUCGUCACUCAGCAGGGCAUCUCUGAGAGAAAUGCC, the self-cleavage was 1.28.

With UACGUAGGUGGUUUUCCCCUGAUAGUGCUAAGGGGGCCUGGAAGUCUGGACUGGGCAGAGCUCAACACAGCGUGGCAAAGUGGCUGUGGCUAGCCUGCCUCUCUGGAUUCCUCGUCACUCAGCAGGGCAUCUCUGAGAGAAAUGCC, the self-cleavage was determined as 0.1.

For the variant UACGUAGGUGGUUUUCCCCUGAUAGUGCUAAGGGGGCCUGGAAGUCUGGGCUGGGCAGAGCUCAACACAGCGUGGCAAAGUGGCUGUGGCUAGACUGCCUCUCUGGAUUCCUCGUCACUCAGCAGGGCAUCUCUGAGAGAAAUGCC, the self-cleavage was 1.59.

With UACGUAGGUGGUUUUCCCCUGAUAGUGCUAAGGGGGCCUGGAAGUAUGGACUGGGCAGAGCUCAACACAGCGUGGCAAAGUGGCUGUGGCAAGACUGCCUCUCUGGAUUCCUCGUCACUCAGCAGGGCAUCUCUGAGAGAAAUGCC, the self-cleavage is 0.62.

Turning to UACGUAGGUGGUUUUCCCCUGAUAGUGCUAAGGGGGCCUGGAAGUAUGGACUGGGCAGAGCUCAACACAGCGUGGCAAAGUGGCUGUGGCUAGACUGCCUCUCUGGAUUCCCCGUCACUCAGCAGGGCAUCUCUGAGAGAAAUGCC, the self-cleavage is 1.28.

For UACGUAGGUGGUUUUCCCCUGAUAGUGCUAAGGGGGCCUGGAAGUAUGGACUGGGCAGAGCUCAACACAGCGUGGCAAAGUGGCUGUGGCUAGACUGCCUCUCUGGAUUCCACGUCACUCAGCAGGGCAUCUCUGAGAGAAAUGCC, the self-cleavage came out at 1.37.

As for UACGUAGGUGGUUUUCCCCUGAUAGUGCUAAGGGGGCCUGGAAGUAUGGACUGGGCAGAGCUCAACACAGCGUGGCAAAGUGGCUGUGGCUAGACUGCCUCUCCGGAUUCCUCGUCACUCAGCAGGGCAUCUCUGAGAGAAAUGCC, the self-cleavage stood at 1.96.

For the variant UACGUAGGUGGUUUUCCCCUGAUAGUGCUAAGGGGGCCUGGAAGUAUGGACUGGGCAGAGCUCAACACAGCGUGGCAAAGUGGCUGAGGCUAGACUGCCUCUCUGGAUUCCUCGUCACUCAGCAGGGCAUCUCUGAGAGAAAUGCC, the self-cleavage was determined as 0.03.

In the case of UACGUAGGUGGUUUUCCCCUGAUAGUGCUAAGGGGGCCUGGAAGUCUGGACUGGGCAGAGCUCAACACAGCGUGGCACAGUGGCUGUGGCUAGACUGCCUCUCUGGAUUCCUCGUCACUCAGCAGGGCAUCUCUGAGAGAAAUGCC, the self-cleavage came to 1.9.

Consider UACGUAGGUGGUUUUCCCCUGAUAGUGCUAAGGGGGCCUGGAAGUCUGGACUGGGCAGAGCUCAACACAGCGUGGCAGAGUGGCUGUGGCUAGACUGCCUCUCUGGAUUCCUCGUCACUCAGCAGGGCAUCUCUGAGAGAAAUGCC, for which the self-cleavage amounted to 1.62.

UACGUAGGUGGUUUUCCCCUGAUAGUGCUAAGGGGGCCUGGAAGUAUGGACUGGGCAGAGCUCAACACAGCGUGGCAAAGUGGCUGUGGCUAGACAGCCUCUCUGGAUUCCUCGUCACUCAGCAGGGCAUCUCUGAGAGAAAUGCC: the self-cleavage turned out to be 0.05.

For UACGUAGGUGGUUUUCCCCUGAUAGUGCUAAGGGGGCCUGGAAGUAUGGACUGGGCAGAGCUCAACACAGCGUGGCAAAGUGGCUGUGGCUAGACUGCCUCUCUGGAUUCCUCGUCACUCAGCAGGGCAUCACUGAGAGAAAUGCC, the self-cleavage was determined as 1.09.

On to UACGUAGGUGGUUUUCCCCUGAUAGUGCUAAGGGGGCCUGGAAGUAUGGACUGGGCAGAGCUCAACACAGCGUGGCAAAGUGGCUGUGGCUAGACUGCCUCUCUGGAUUCCUCGUCACUCAGCAAGGCAUCUCUGAGAGAAAUGCC, for which the self-cleavage is 2.
